Measurements published in patent US10927153 (UNIVERSITY OF SOUTH FLORIDA, dated 2021).

Assays:
[1] = target: T1, Duffy Antigen Receptor for Chemokines (DARC) on human Duffy positive erythrocytes (human, UniProt Q16570 1-336); assay: COS7 cell binding assay (rosettes)
T1 construct: whole, on cells; also called DARC positive erythrocytes
T1 sequence: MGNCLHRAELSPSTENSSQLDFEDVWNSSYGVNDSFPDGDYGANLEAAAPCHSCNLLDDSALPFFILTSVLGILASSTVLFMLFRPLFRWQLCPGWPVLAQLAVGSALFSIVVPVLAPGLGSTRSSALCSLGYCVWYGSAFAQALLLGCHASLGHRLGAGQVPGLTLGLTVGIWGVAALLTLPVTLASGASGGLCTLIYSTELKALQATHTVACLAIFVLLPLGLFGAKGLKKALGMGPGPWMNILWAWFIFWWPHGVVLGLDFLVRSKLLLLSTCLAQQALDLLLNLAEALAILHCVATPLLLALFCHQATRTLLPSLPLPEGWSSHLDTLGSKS

[2] = target: T1, Duffy Antigen Receptor for Chemokines …; assay: in vitro erythrocyte binding assay, eluted antigen detected by blot with mAb-3D10
[3] = target: T2, Sal-1 DBP-II Mutant 1 (changes at residues 218 and 221-223), recombinant (Plasmodium vivax (strain Salvador I), UniProt P22290 211-525); assay: ELISA on adsorbed recombinant protein
T2 chain: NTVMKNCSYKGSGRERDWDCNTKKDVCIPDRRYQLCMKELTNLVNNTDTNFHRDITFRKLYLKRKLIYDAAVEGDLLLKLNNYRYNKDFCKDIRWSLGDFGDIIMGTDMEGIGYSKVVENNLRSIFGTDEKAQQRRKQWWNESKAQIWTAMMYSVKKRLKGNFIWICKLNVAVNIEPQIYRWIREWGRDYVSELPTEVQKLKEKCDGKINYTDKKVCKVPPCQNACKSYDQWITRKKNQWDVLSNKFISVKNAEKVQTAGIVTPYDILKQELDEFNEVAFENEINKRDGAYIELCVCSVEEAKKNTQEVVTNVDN

[4] = target: T3, Sal-1 DBP-II Mutant 12 (changes at residues 479 and 480), recombinant (Plasmodium vivax (strain Salvador I), UniProt P22290 211-525); assay: ELISA on adsorbed recombinant protein
T3 chain: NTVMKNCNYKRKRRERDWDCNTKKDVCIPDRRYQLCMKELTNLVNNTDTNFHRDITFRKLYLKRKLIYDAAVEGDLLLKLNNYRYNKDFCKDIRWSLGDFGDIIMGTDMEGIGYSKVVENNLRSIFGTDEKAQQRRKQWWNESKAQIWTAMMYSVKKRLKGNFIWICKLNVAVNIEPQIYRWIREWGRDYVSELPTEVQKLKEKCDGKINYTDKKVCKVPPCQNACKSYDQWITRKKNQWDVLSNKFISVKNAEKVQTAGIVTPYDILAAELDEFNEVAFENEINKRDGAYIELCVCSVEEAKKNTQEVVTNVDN

[5] = target: T4, Sal-1 DBP-II expressed on the surface of HEK293T cells (Plasmodium vivax, UniProt P22290 198-525); assay: immunofluorescence on HEK293T cells, 10 ug/mL mAb
T4 construct: Expressed from the pRE4 vector on HEK293T cells; also called P. vivax Sal-1 DBP-II

[6] = target: T1, Duffy Antigen Receptor for Chemokines …; assay: in vitro erythrocyte binding assay, blot of eluted antigen

Binder | binding result [1] | binding result [6] | other results
DEKnull-2 expressed on the surface of COS7 cells (designed binder, also called COS7 cell surface-expressed rDEKnull-2) TISSAIINHAFLQNTVMKNCNYKRKRRERDWDCNTKKDVCIPDRRYQLCMKELTNLVNNTDTNFHADITFRKLYLKAKLIYDAAVEGDLLTKLNNYRYNKDFCKDIRWSLGDFGDIIMGTDMEGIGTSAVVENNLRSIFGTAATAQARRSQWTSESKAQIWTAMMYSVKKRLKGTFIWICKANVAVNIEPQIYRSIREWGRDYVAELPTEVTKLKEKCDGKINYADKKVCKVPPCQNACKSYDQWITRKANQWDVLSNKFTSAKNAEKAQTASIVTPYDILKQELDEFNEVAFENEINKRDGAYIELCVCSVEEAKKNTQEVVTNVDN | binds | – | –
recombinant DEKnull-3 (designed binder, also called rDEKnull-3) TISSAIINHAFLQNTVMKNCNYKRKRRERDWDCNTKKDVCIPDRRYQLCMKELTNLTATATSAAHRDITFRKLYAARTSAYDAAVEGDLLLKLTNYRASTDACKAATWSLGDFGDIIMGTDMEGIGYSKVVATNLRSIFGTDEKAQQRRKQWTATSKAQIWTAMMAASTAASKGNAIWSCKLNVAVNIEPTIAAWIATSARATSSELPTEVQKLKEKCDGKINYTDKKVCKVPPCQNACKSYDQWITRKKNQWDVLSNKFISVKNAEKVQTAGIVTPYDILKQELDEFNEVAFENEINKRDGAYIELCVCSVEEAKKNTQEVVTNVDNHHHHHH | – | – | binding result [2]: no binding
anti-DBPII monoclonal antibody mAb 2C6 (antibody, V domains shown) VH: QVQLQQSDAELVKPGASVKISCKVSGYTFTDHSIHWMKQRPEQGLEWIGYIYPRDGSTEYNEKFKGKATLTTDKSSSTAYMQLNSLTSADSAVYFCARWFGYYFDYWGQGTTLTVSS VL: NIMMTQSPSSLAVSAGEKVTMSCKSSQSVLYSSNQKNYLAWYQQKPGQSPKLLIYWASSRESGVPDRFTGSGSGTDFTLTISSVQPEDLAVYYCHQYLSSWTFGGGTKLEITR | – | – | binding result [3]: binds; binding result [4]: no binding; binding result [5]: binds
recombinant DEKnull-4 (designed binder, Dimerization residues of Sal1 mutated; also called rDEKnull-4) TISSAIINHAFLQNTVMKNCNYKRKRRERDWDCNTKKDVCIPDRRYQLCMKALTNLVNNTDTNFHRDITARKAYLAAKLTADAASEGDLLLKLAATATSAATCKDIRWSLGDFGDIIMGTDMEGIGYSKVVENNLRSIFGTDEKAQQRRKQWWNESKATIWTAMMASATASAATSAATAAKLNVAVNIEPQIYRWIREWGRDYVSELPTEVQKLKEKCDGKINYTDKKVCKVPPCQNACKSYDQWITRKKNQWDVLSNKFISVKNAEKVQTAGIVTPYDILKQELDEFNEVAFENEINKRDGAYIELCVCSVEEAKKNTQEVVTNVDNHHHHHH | – | – | binding result [2]: no binding
DEKnull-3 expressed on the surface of COS7 cells (designed binder, also called COS7 cell surface-expressed DEKnull-3) TISSAIINHAFLQNTVMKNCNYKRKRRERDWDCNTKKDVCIPDRRYQLCMKELTNLTATATSAAHRDITFRKLYAARTSAYDAAVEGDLLLKLTNYRASTDACKAATWSLGDFGDIIMGTDMEGIGYSKVVATNLRSIFGTDEKAQQRRKQWTATSKAQIWTAMMAASTAASKGNAIWSCKLNVAVNIEPTIAAWIATSARATSSELPTEVQKLKEKCDGKINYTDKKVCKVPPCQNACKSYDQWITRKKNQWDVLSNKFISVKNAEKVQTAGIVTPYDILKQELDEFNEVAFENEINKRDGAYIELCVCSVEEAKKNTQEVVTNVDN | no binding | – | –
recombinant DEKnull-2 (designed binder, Polymorphic residues of Sal1 mutated; also called rDEKnull-2) TISSAIINHAFLQNTVMKNCNYKRKRRERDWDCNTKKDVCIPDRRYQLCMKELTNLVNNTDTNFHADITFRKLYLKAKLIYDAAVEGDLLTKLNNYRYNKDFCKDIRWSLGDFGDIIMGTDMEGIGTSAVVENNLRSIFGTAATAQARRSQWTSESKAQIWTAMMYSVKKRLKGTFIWICKANVAVNIEPQIYRSIREWGRDYVAELPTEVTKLKEKCDGKINYADKKVCKVPPCQNACKSYDQWITRKANQWDVLSNKFTSAKNAEKAQTASIVTPYDILKQELDEFNEVAFENEINKRDGAYIELCVCSVEEAKKNTQEVVTNVDNHHHHHH | – | binds | –
DEKnull-4 expressed on the surface of COS7 cells (designed binder, also called COS7 cell surface-expressed DEKnull-4) TISSAIINHAFLQNTVMKNCNYKRKRRERDWDCNTKKDVCIPDRRYQLCMKALTNLVNNTDTNFHRDITARKAYLAAKLTADAASEGDLLLKLAATATSAATCKDIRWSLGDFGDIIMGTDMEGIGYSKVVENNLRSIFGTDEKAQQRRKQWWNESKATIWTAMMASATASAATSAATAAKLNVAVNIEPQIYRWIREWGRDYVSELPTEVQKLKEKCDGKINYTDKKVCKVPPCQNACKSYDQWITRKKNQWDVLSNKFISVKNAEKVQTAGIVTPYDILKQELDEFNEVAFENEINKRDGAYIELCVCSVEEAKKNTQEVVTNVDN | no binding | – | –
DBPII Sal1 expressed on the surface of COS7 cells (ligand, also called COS7 cell surface-expressed Sal1; wild type DBPII Sal1) TISSAIINHAFLQNTVMKNCNYKRKRRERDWDCNTKKDVCIPDRRYQLCMKELTNLVNNTDTNFHRDITFRKLYLKRKLIYDAAVEGDLLLKLNNYRYNKDFCKDIRWSLGDFGDIIMGTDMEGIGYSKVVENNLRSIFGTDEKAQQRRKQWWNESKAQIWTAMMYSVKKRLKGNFIWICKLNVAVNIEPQIYRWIREWGRDYVSELPTEVQKLKEKCDGKINYTDKKVCKVPPCQNACKSYDQWITRKKNQWDVLSNKFISVKNAEKVQTAGIVTPYDILKQELDEFNEVAFENEINKRDGAYIELCVCSVEEAKKNTQEVVTNVDN | binds | – | –
recombinant DBPII Sal1 (ligand domain, region II, of Plasmodium vivax Duffy binding protein, Sal1 allele) (ligand, also called rDBPII Sal1; rDBPII) TISSAIINHAFLQNTVMKNCNYKRKRRERDWDCNTKKDVCIPDRRYQLCMKELTNLVNNTDTNFHRDITFRKLYLKRKLIYDAAVEGDLLLKLNNYRYNKDFCKDIRWSLGDFGDIIMGTDMEGIGYSKVVENNLRSIFGTDEKAQQRRKQWWNESKAQIWTAMMYSVKKRLKGNFIWICKLNVAVNIEPQIYRWIREWGRDYVSELPTEVQKLKEKCDGKINYTDKKVCKVPPCQNACKSYDQWITRKKNQWDVLSNKFISVKNAEKVQTAGIVTPYDILKQELDEFNEVAFENEINKRDGAYIELCVCSVEEAKKNTQEVVTNVDN | – | binds | –
recombinant DEKnull (designed binder, also called rDEKnull; original DEKnull) TISSAIINHAFLQNTVMKNCNYKRKRRERDWDCNTKKDVCIPDRRYQLCMKELTNLVNNTDTNFHRDITFRKLYLKRKLIYDAAVEGDLLLKLNNYRYNKDFCKDIRWSLGDFGDIIMGTDMEGIGYSKVVENNLRSIFGTAATAQATRSQWTSESKAQIWTAMMYSVKKRLKGNFIWICKLNVAVNIEPQIYRWIREWGRDYVSELPTEVQKLKEKCDGKINYTDKKVCKVPPCQNACKSYDQWITRKKNQWDVLSNKFISVKNAEKVQTAGIVTPYDILKQELDEFNEVAFENEINKRDGAYIELCVCSVEEAKKNTQEVVTNVDN | – | binds | –
